The target of assay [1] is T1, human MSLN-hFc protein (Acro, Cat. No. MSN-H5253) (human, UniProt Q13421 296-580).
T1 construct: the method names the coated protein as human MSLN-hFc (Acro); also called human MSLN full-length protein
Nature of the assay: ELISA on coated antigen, antibody 1 nM. A general note: In an ELISA, binding on a coated surface is turned into a signal by an enzyme label.

Assay [2] deals with T1, human MSLN-hFc protein (Acro, Cat. No. …). Nature of the assay: ELISA on coated antigen, antibody 10 nM.
Assay [3] has as its target T2, human MSLN-R3 protein (human, UniProt Q13421 487-598).
T2 construct: also called hMSLN-R3
Nature of the assay: ELISA on coated antigen, antibody 0.1 nM.

The target in assay [4] is T1, human MSLN-hFc protein (Acro, Cat. No. …). Nature of the assay: ELISA on coated antigen, antibody 0.0001 nM.
Assay [5] deals with T2, human MSLN-R3 protein. The assay can be described thus: ELISA on coated antigen, antibody 0.01 nM.
In assay [6] the target is T2, human MSLN-R3 protein. The assay can be described thus: ELISA on coated antigen, antibody 10 nM.
The target in assay [7] is T1, human MSLN-hFc protein (Acro, Cat. No. …). The assay can be described thus: ELISA on coated antigen, antibody 0.1 nM.
Assay [8] deals with T2, human MSLN-R3 protein. Nature of the assay: ELISA on coated antigen, antibody 0.0001 nM.
Assay [9] deals with T1, human MSLN-hFc protein (Acro, Cat. No. …). The assay can be described thus: ELISA on coated antigen, antibody 100 nM.
Assay [10] has as its target T2, human MSLN-R3 protein. The assay can be described thus: ELISA on coated antigen, antibody 0.001 nM.
The target of assay [11] is T2, human MSLN-R3 protein. Nature of the assay: ELISA on coated antigen, antibody 1 nM.
In assay [12] the target is T2, human MSLN-R3 protein. Nature of the assay: ELISA on coated antigen, antibody 100 nM.
Assay [13] addresses T1, human MSLN-hFc protein (Acro, Cat. No. …). Nature of the assay: ELISA on coated antigen, antibody 0.001 nM.
The target is the same in assay [14]. The assay can be described thus: ELISA on coated antigen, antibody 0.01 nM.

T2 sequence (Q13421 495-606, form in doubt): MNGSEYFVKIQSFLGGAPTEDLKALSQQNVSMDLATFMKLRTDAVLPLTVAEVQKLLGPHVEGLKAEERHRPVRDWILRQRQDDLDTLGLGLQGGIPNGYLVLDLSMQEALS
T1 sequence (Q13421 other isoform, or with tags, fused parts or gaps limits assumed): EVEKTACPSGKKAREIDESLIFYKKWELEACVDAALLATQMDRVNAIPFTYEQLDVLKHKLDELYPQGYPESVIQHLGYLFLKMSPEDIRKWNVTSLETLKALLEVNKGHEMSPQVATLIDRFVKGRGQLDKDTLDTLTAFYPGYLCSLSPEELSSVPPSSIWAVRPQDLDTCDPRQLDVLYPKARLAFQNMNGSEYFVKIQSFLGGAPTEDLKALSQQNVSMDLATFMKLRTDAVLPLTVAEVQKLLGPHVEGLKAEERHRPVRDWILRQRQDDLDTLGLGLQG

B1: F7.44.20-VL-VH (scFv, not shown: small tags and cut ends)
scFv: QIVLTQSPALMSASPGEKVTLTCSASSSVISSYLSWYQQKPGSSPKLLIYRTSNLASGVPARFSGSGSGTSYSLTISSMEAEDAASYFCHQWSSFPYTFGGGTKLEIKGGGGSGGGGSGGGGSEVQLQQSGPELVKPGASVKIPCKASGYTFTDYNMDWVKQSHGKSLEWIGDINPSTGGTIYNQKFNGKATLTEDKSASTVYMEFRSLTSDDTAVYYCARRRIGTGYFDVWGTGTTVTVSS
notes: also called S009-F7.44.20 parental variable regions, VL-VH order
Consider B1, for which the OD450 in assay [1] amounted to 1.06 OD450; in assay [2], 2.14 OD450; with human MSLN-R3 protein [3], 0.08 OD450; in [4] it was 0.04 OD450; with human MSLN-R3 protein [5], 0.05 OD450; with human MSLN-R3 protein [6] it was 1.68 OD450. Besides, the OD450 in assay [7] came to 0.11 OD450; with human MSLN-R3 protein [8], 0.05 OD450; in assay [9], 2.98 OD450; in the assay with human MSLN-R3 protein [10], 0.04 OD450; with human MSLN-R3 protein [11] it was 0.55 OD450; in the assay with human MSLN-R3 protein [12], 1.8 OD450. For the same molecule, the OD450 in assay [13] was found to be 0.2 OD450; in assay [14] it was 0.05 OD450.

B2: F7.44.20-H8 (scFv, not shown: small tags and cut ends)
scFv: EVQLVQSGAEVKKPGASVKVSCKASGYTFTDYNMDWVRQAPGQGLEWMGDINPSTGGTIYNQKFQGRVTMTEDKSTSTVYMELSSLRSEDTAVYYCARRRIGTGYFDVWGQGTTVTVSSGGGGSGGGGSGGGGSEIVLTQSPATLSLSPGERATLSCSASSSVISSYLSWYQQKPGSSPRLLIYRTSNLASGIPARFSGSGSGTDYTLTISSLEPEDFAVYYCHQWSSFPYTFGGGTKVEIK
notes: also called S009-F7.44.20 humanized antibody VH1a + VL4
Turning to B2, the OD450 in assay [1] was found to be 1.13 OD450; in assay [2] it was 2.55 OD450; in the assay with human MSLN-R3 protein [3] it was 0.09 OD450; in [4], 0.05 OD450; with human MSLN-R3 protein [5], 0.04 OD450; with human MSLN-R3 protein [6] it was 2.07 OD450. Also, the OD450 was 0.15 OD450 in [7]; 0.05 OD450 with human MSLN-R3 protein [8]; 3.09 OD450 in assay [9]; 0.04 OD450 with human MSLN-R3 protein [10]; 0.76 OD450 with human MSLN-R3 protein [11]; 2.15 OD450 with human MSLN-R3 protein [12]. The OD450 in assay [13] was determined as 0.04 OD450; in [14] it was 0.05 OD450.

B3: F7.44.20-H12 (scFv, not shown: small tags and cut ends)
scFv: EVQLVQSGAEVKKPGASVKVSCKASGYTFTDYNMDWVRQAPGQGLEWMGDINPSTGGTIYNQKFNGRVTMTEDKSASTVYMELSSLRSEDTAVYYCARRRIGTGYFDVWGQGTTVTVSSGGGGSGGGGSGGGGSEIVLTQSPATLSLSPGERATLSCSASSSVISSYLSWYQQKPGSSPRLLIYRTSNLASGIPARFSGSGSGTDYTLTISSLEPEDFAVYYCHQWSSFPYTFGGGTKVEIK
notes: also called S009-F7.44.20 humanized antibody VH2 + VL4
In the case of B3, the OD450 in [1] stood at 1.02 OD450; in assay [2], 2.92 OD450; with human MSLN-R3 protein [3], 0.09 OD450; in assay [4] it was 0.05 OD450; with human MSLN-R3 protein [5], 0.05 OD450; with human MSLN-R3 protein [6] it was 2.12 OD450. Moreover, the OD450 was determined as 0.16 OD450 in assay [7]; 0.05 OD450 with human MSLN-R3 protein [8]; 3.17 OD450 in [9]; 0.05 OD450 in the assay with human MSLN-R3 protein [10]; 0.6 OD450 with human MSLN-R3 protein [11]; 2.44 OD450 with human MSLN-R3 protein [12]. Also, the results for the OD450 in assay [13] and in assay [14] were 0.05 OD450 and 0.06 OD450, respectively.

B4: F7.44.20-H16 (scFv, not shown: small tags and cut ends)
scFv: EVQLVQSGAEVKKPGASVKVSCKASGYTFTDYNMDWVRQAPGQGLEWMGDINPSTGGTIYNQKFSGRVTMTEDKSASTVYMELSSLRSEDTAVYYCARRRIGTGYFDVWGQGTTVTVSSGGGGSGGGGSGGGGSEIVLTQSPATLSLSPGERATLSCSASSSVISSYLSWYQQKPGSSPRLLIYRTSNLASGIPARFSGSGSGTDYTLTISSLEPEDFAVYYCHQWSSFPYTFGGGTKVEIK
notes: also called S009-F7.44.20 humanized antibody VH2a + VL4
In the case of B4, the OD450 came to 1.12 OD450 in assay [1]; 2.4 OD450 in assay [2]; 0.1 OD450 with human MSLN-R3 protein [3]; 0.05 OD450 in [4]; 0.06 OD450 with human MSLN-R3 protein [5]; 1.6 OD450 with human MSLN-R3 protein [6]. Besides, the OD450 is 0.16 OD450 in [7]; 0.04 OD450 with human MSLN-R3 protein [8]; 2.97 OD450 in assay [9]; 0.04 OD450 with human MSLN-R3 protein [10]; 0.72 OD450 in the assay with human MSLN-R3 protein [11]; 1.8 OD450 with human MSLN-R3 protein [12]. Besides, the OD450 in assay [13] and in assay [14] was 0.05 OD450 each time.

B5: F7.44.20-H15 (scFv, not shown: small tags and cut ends)
scFv: EVQLVQSGAEVKKPGASVKVSCKASGYTFTDYNMDWVRQAPGQGLEWMGDINPSTGGTIYNQKFSGRVTMTEDKSASTVYMELSSLRSEDTAVYYCARRRIGTGYFDVWGQGTTVTVSSGGGGSGGGGSGGGGSEIVLTQSPATLSLSPGERATLSCSASSSVISSYLSWYQQKPGQSPRLLIYRTSNLASGIPARFSGSGSGTDYTLTISSLEPEDFAVYYCHQWSSFPYTFGGGTKVEIK
notes: also called S009-F7.44.20 humanized antibody VH2a + VL3
For the molecule B5, the OD450 is 1.24 OD450 in assay [1]; 2.78 OD450 in [2]; 0.11 OD450 with human MSLN-R3 protein [3]; 0.05 OD450 in assay [4]; 0.04 OD450 in the assay with human MSLN-R3 protein [5]; 1.85 OD450 with human MSLN-R3 protein [6]. The OD450 turned out to be 0.19 OD450 in assay [7]; 0.05 OD450 with human MSLN-R3 protein [8]; 3.26 OD450 in assay [9]; 0.04 OD450 with human MSLN-R3 protein [10]; 0.77 OD450 in the assay with human MSLN-R3 protein [11]; 1.86 OD450 with human MSLN-R3 protein [12]. Further, the values for the OD450 in assay [13] and in assay [14] were 0.05 OD450 and 0.06 OD450, respectively.

B6: F7.44.20-H11 (scFv, not shown: small tags and cut ends)
scFv: EVQLVQSGAEVKKPGASVKVSCKASGYTFTDYNMDWVRQAPGQGLEWMGDINPSTGGTIYNQKFNGRVTMTEDKSASTVYMELSSLRSEDTAVYYCARRRIGTGYFDVWGQGTTVTVSSGGGGSGGGGSGGGGSEIVLTQSPATLSLSPGERATLSCSASSSVISSYLSWYQQKPGQSPRLLIYRTSNLASGIPARFSGSGSGTDYTLTISSLEPEDFAVYYCHQWSSFPYTFGGGTKVEIK
notes: also called S009-F7.44.20 humanized antibody VH2 + VL3
Regarding B6, the OD450 worked out at 1.69 OD450 in [1]; 2.91 OD450 in assay [2]; 0.16 OD450 with human MSLN-R3 protein [3]; 0.05 OD450 in [4]; 0.05 OD450 with human MSLN-R3 protein [5]; 2.41 OD450 in the assay with human MSLN-R3 protein [6]. Besides, the OD450 in assay [7] was 0.27 OD450; with human MSLN-R3 protein [8], 0.05 OD450; in assay [9], 3.28 OD450; in the assay with human MSLN-R3 protein [10] it was 0.04 OD450; in the assay with human MSLN-R3 protein [11], 1.1 OD450; with human MSLN-R3 protein [12] it was 2.43 OD450. Besides, the OD450 was determined as 0.05 OD450 in [13] and 0.06 OD450 in assay [14].

B7: F7.44.20 (scFv, not shown: small tags and cut ends)
scFv: EVQLQQSGPELVKPGASVKIPCKASGYTFTDYNMDWVKQSHGKSLEWIGDINPSTGGTIYNQKFNGKATLTEDKSASTVYMEFRSLTSDDTAVYYCARRRIGTGYFDVWGTGTTVTVSSGGGGSGGGGSGGGGSQIVLTQSPALMSASPGEKVTLTCSASSSVISSYLSWYQQKPGSSPKLLIYRTSNLASGVPARFSGSGSGTSYSLTISSMEAEDAASYFCHQWSSFPYTFGGGTKLEIK
notes: also called S009-F7.44.20 (parental variable regions, in the humanized-antibody ELISA)
Turning to B7, the OD450 turned out to be 0.83 OD450 in [1]; 2.48 OD450 in [2]; 0.07 OD450 with human MSLN-R3 protein [3]; 0.04 OD450 in [4]; 0.04 OD450 with human MSLN-R3 protein [5]; 1.68 OD450 in the assay with human MSLN-R3 protein [6]. The OD450 stood at 0.22 OD450 in [7]; 0.04 OD450 with human MSLN-R3 protein [8]; 2.97 OD450 in assay [9]; 0.04 OD450 with human MSLN-R3 protein [10]; 0.39 OD450 in the assay with human MSLN-R3 protein [11]; 1.96 OD450 with human MSLN-R3 protein [12]. The OD450 in [13] was determined as 0.17 OD450; in assay [14] it was 0.05 OD450.

The values above are taken from US20250250357A1 (NANJING ZAIMING PHARMACEUTICAL, published 2025).
